Data reported in patent US20230331840A1 (FAPON BIOTHERAPY, published 2023).

B1: CD22 antibody FC2-201 (antibody, IgG2b, V domains shown)
VH: KVQLQQSGAGLVKPGASVKLSCKASGYTFTDSILHWLMQRSGQGLEWIGWFYPGSGSIKYNEKFKDKATLTADKSSSTVYMELSRLTSEDSAFYFCARHEDGYDGFAYWGQGTLVTVSA
VL: ENVLTQSPAIMSASLGEKVTMSCRASSSVNYIFWYQQKSDASPKLWIYYTSNLAPGVPARFSGSGSGNSYSLTISSMEGEDAATYYCQQFTSSPFTFGSGTKLEIKR
notes: Mouse hybridoma monoclonal antibody
B2: CD22 antibody FC2-117 (antibody, IgG1, V domains shown)
VH: DVQLQESGPGLVKPSQSLSLTCSVTGYSITSGYYWNWIRQFPGNKLEWMGYISYDGSNNYNPSLKNRISITRDTSKNQFFLKLNSVTTEDTATYYCTKGGYGYYFDYWGQGTTLTVSS
VL: DIQMTQSPASLSASVGETVTITCRASGNIHNYLAWYQQKQGKSPQLLVYNAKTLADGVPSRFSGSGSGTQYSLKINSLQPEDFGSYYCQHFWSTPPTFGGGTKLEIKR
notes: as for B1

Target: T1, Human CD22 extracellular segment conjugated His label (human, UniProt P20273 20-687)
T1 construct: extracellular domain; Bought recombinant protein; also called h CD22-His; hCD22-His; not shown: His label
Experiment: ELISA, h CD22-His coated at 2 µg/ml, antibody in 3-fold dilutions
Description: M971 was a 7 epitope humanized CD22 antibody. The specific sequence and information can be found publicly. The antibody was synthesized by Shenzhen FeipengBiological therapy Co., LTD.

| Binder | binding result |
| --- | --- |
| B1 | binds |
| B2 | binds |
